The text below walks through data of patent publication US20230174643A1.

The target in assay [1] is CD3 (human). Put plainly: cell-based or functional assay.
The target in assay [2] is Human DLL3 (human) (UniProt Q9NYJ7). The assay is described as follows: cell-based or functional assay.
Chain of Human DLL3 (human) (Q9NYJ7 27-618 limits assumed): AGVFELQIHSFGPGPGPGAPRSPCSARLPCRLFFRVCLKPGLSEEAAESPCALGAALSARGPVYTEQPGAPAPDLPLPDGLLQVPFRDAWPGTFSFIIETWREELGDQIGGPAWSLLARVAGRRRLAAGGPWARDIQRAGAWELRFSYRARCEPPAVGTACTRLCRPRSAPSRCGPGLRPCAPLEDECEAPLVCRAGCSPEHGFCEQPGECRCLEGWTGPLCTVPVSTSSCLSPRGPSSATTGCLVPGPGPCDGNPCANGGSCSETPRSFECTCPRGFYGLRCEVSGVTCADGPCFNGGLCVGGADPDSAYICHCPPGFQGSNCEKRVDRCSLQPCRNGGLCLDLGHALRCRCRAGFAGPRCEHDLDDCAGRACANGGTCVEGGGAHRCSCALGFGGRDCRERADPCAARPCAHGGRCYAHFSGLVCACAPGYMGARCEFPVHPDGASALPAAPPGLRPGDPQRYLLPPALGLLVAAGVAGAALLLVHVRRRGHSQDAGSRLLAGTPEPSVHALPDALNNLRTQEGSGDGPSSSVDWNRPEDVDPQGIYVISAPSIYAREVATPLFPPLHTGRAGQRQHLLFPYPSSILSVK

As to AMG 757 (bispecific antibody), the EC90 of AMG 757-mediated CD69 upregulation in assay [1] turned out to be 4.6 ng/mL. Further, in assay [2], the EC50 of AMG 757-mediated cell killing in SHP-77 cells worked out at 2.8 ng/mL, the EC90 of AMG 757-mediated cell killing in SHP-77 cells worked out at 5.7 ng/mL and the in vitro EC90 for AMG 757-mediated cell killing is 5.2 ng/mL.
